Test results taken from the supplement of paper PMC9732359.
± gives the uncertainty stated by the source.

Assay: protein stability index of a GFP-peptide fusion (yeast GPS) (PSI 1-4); higher = more stable; sorted into four equal gates, so the index is relative within each strain
Summary of the method: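 The protein stability index of a peptide was calculated by multiplying its read frequency in each gate by that gate's number and adding the products. The peptides were tiled 17-residue stretches of yeast proteins, fused downstream of GFP on a Cherry-expressing plasmid and carried in yeast as a pooled library. Mid-log cultures in leucine-free medium were sorted into four equal gates by GFP/Cherry ratio, and each gate's plasmids were PCR-amplified and Illumina-sequenced.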

Sequence	protein stability index (doa10∆)	protein stability index (pdr5∆)	protein stability index (san1∆)	protein stability index (ubr1∆)
LKAQITSLKCLVNRKPI [SNF2]	2.05 ± 0.045	1.77 ± 0.038	1.6 ± 0.062	1.61 ± 0.032
DQAIVTETKRLVVIRFG [DIB1]	2 ± 0.071	2.23 ± 0.062	2.03 ± 0.1	2.45 ± 0.067
KPSPIDSGIGSNGSGIV [CSL4]	3.17 ± 0.06	2.89 ± 0.042	2.94 ± 0.04	3.1 ± 0.046
RAVKEIKKFAKLHMGTE [RPL31B]	2.95 ± 0.071	2.94 ± 0.13	3.08 ± 0.08	2.61 ± 0.086
RRRLLGPAAAKPMAFSN [MTR3]	3.06 ± 0.071	3.17 ± 0.055	3.23 ± 0.057	3.21 ± 0.038
AAGIWTCSCCKKTVAGG [RPL43A]	2.42 ± 0.13	3.17 ± 0.11	3.02 ± 0.097	2.99 ± 0.074
KAPTKLDDPEAVSKDPL [DIS3]	3.35 ± 0.089	3.45 ± 0.12	3.17 ± 0.058	3.26 ± 0.068
NDLEVGVATKDKFFTLS [SCL1]	3.18 ± 0.084	3.33 ± 0.067	3.08 ± 0.072	2.89 ± 0.12
GRHHQEEELFQEMIEIS [SRP54]	3.21 ± 0.058	3.3 ± 0.047	3.41 ± 0.038	3.35 ± 0.058
DEKLKTEKLKNDKSEVL [SRB8]	3.09 ± 0.3	3.74 ± 0.21	3.24 ± 0.18	3.33 ± 0.22
KSHSTVSSSSRHHRKTE [ISW2]	2.7 ± 0.055	2.69 ± 0.043	2.14 ± 0.052	2.88 ± 0.041
LNLDSLLVDQKQLNSLR [SMD1]	2.51 ± 0.051	2.79 ± 0.059	2.98 ± 0.067	2.51 ± 0.062
LERARDVNIVNRRLVYS [YCG1]	2.44 ± 0.27	–	1.72 ± 0.29	1.66 ± 0.13
SNELIEHFSHFGHIMED [YDL088C/ASM4]	3.33 ± 0.12	3.09 ± 0.065	2.94 ± 0.053	2.99 ± 0.045
ESGKVFIGRLPIMLRSK [RPB2]	2.83 ± 0.1	2.67 ± 0.062	2.94 ± 0.08	2.79 ± 0.058
PNLIEKMVAKGLNDLVE [BRR2]	2.51 ± 0.17	2.82 ± 0.21	–	2.99 ± 0.18
SFTQGELNDLKWGRNQP [YMR129W/POM152]	3.04 ± 0.15	2.84 ± 0.09	3.14 ± 0.091	2.78 ± 0.074
GCNNLIKNISNRVGLTL [ARP9]	3.28 ± 0.098	2.63 ± 0.066	3.33 ± 0.069	3.14 ± 0.057
GVEVRVTPTKTEVIIRA [RPS3]	1.75 ± 0.048	1.73 ± 0.047	2.55 ± 0.071	1.57 ± 0.036
YFKSILLNKNTGNNLYD [SWI1]	2.59 ± 0.048	2.42 ± 0.036	2.04 ± 0.05	2.19 ± 0.031
SENEDTKDLLSKSPSEW [CSE2]	3.21 ± 0.067	3.11 ± 0.067	3.15 ± 0.051	3.19 ± 0.046
ERQQDELENFLDNFETK [YJL041W/NSP1]	3.23 ± 0.16	3.29 ± 0.21	3.48 ± 0.13	3.38 ± 0.075
GVYSDDELLSQLDLCKL [SRP68]	3.09 ± 0.063	3.21 ± 0.053	3.23 ± 0.043	3.15 ± 0.068
LGFTPGELRSYLKGATG [FAS1]	3.26 ± 0.15	3.66 ± 0.28	3.33 ± 0.17	3.41 ± 0.17

Sequence	protein stability index (doa10∆)	protein stability index (pdr5∆)	protein stability index (san1∆)	protein stability index (ubr1∆)
EYKVITSLQGTYEAIEI [YMR129W/POM152]	3.34 ± 0.2	2.99 ± 0.2	2.89 ± 0.14	3.17 ± 0.13
GETIKSNAVTQTNIWEE [SEM1]	3.37 ± 0.087	3.54 ± 0.16	2.97 ± 0.17	3.43 ± 0.14
MKPEVEQELAHILLTEL [FAS2]	3.006 ± 0.028	2.988 ± 0.028	2.753 ± 0.025	2.722 ± 0.024
VEFKLPKELVPSHEKLK [CDC53]	2.37 ± 0.054	2.24 ± 0.045	2.24 ± 0.071	2.08 ± 0.045
LSLHENYPQDEINAVFN [POP1]	2.97 ± 0.067	3.11 ± 0.056	3.05 ± 0.04	3 ± 0.059
AIPNSIIKRSNGQSLSP [YMR153W/NUP53]	2.14 ± 0.12	2.68 ± 0.049	2.71 ± 0.061	2.69 ± 0.037
TNNMEKIIEDLRQKHEF [SMC2]	3.12 ± 0.055	2.9 ± 0.046	3.13 ± 0.033	3.15 ± 0.033
TFGTKHAADSQNNKPSF [YLR335W/NUP2]	3.16 ± 0.22	–	3.18 ± 0.17	3.05 ± 0.2
NLYHVTEDGWIYHGNHD [PRE2]	–	2.97 ± 0.23	2.88 ± 0.18	3.28 ± 0.22
ISVIETIRVVTENKIFV [RPN5]	1.6 ± 0.14	1.82 ± 0.1	1.9 ± 0.27	2.03 ± 0.093
DRQCMIMDELLSSIAER [DIB1]	2.7 ± 0.066	2.78 ± 0.053	2.88 ± 0.061	2.68 ± 0.052
KKECALLISYGVSIENE [SRB4]	1.75 ± 0.085	1.9 ± 0.16	1.96 ± 0.24	2.03 ± 0.16
WKNLVLKLSQAFGSSAT [YJR042W/NUP85]	2.58 ± 0.055	1.95 ± 0.053	2.22 ± 0.055	1.93 ± 0.044
MILKLVCQVTKFGLLLQ [ECM29]	2.12 ± 0.066	2.28 ± 0.078	2.46 ± 0.072	1.61 ± 0.063
DNNTASNMLGSNEDVMM [RPB3]	2.04 ± 0.25	2.43 ± 0.17	2.31 ± 0.25	–
IPRHLQLAIRNDDELNK [HTA1]	3.02 ± 0.093	3.23 ± 0.063	3.28 ± 0.059	2.89 ± 0.062
FDNYQRNNFLAENSHTQ [PUP1]	3.3 ± 0.081	3.26 ± 0.075	3.17 ± 0.058	3.19 ± 0.044
ELEKYNELERNRKIYQF [SMC3]	2.34 ± 0.099	2.35 ± 0.13	2.38 ± 0.14	2.67 ± 0.078
LWSGKQILSVAIPNGIH [RPO21]	1.57 ± 0.066	1.59 ± 0.051	1.37 ± 0.088	1.71 ± 0.087
TGETYQRFVGHKSDVMS [ASC1]	2.73 ± 0.14	3.09 ± 0.069	2.6 ± 0.096	2.94 ± 0.093
LFSKNRNEVLESMDFLV [YCS4]	2.08 ± 0.05	2.19 ± 0.066	2.43 ± 0.076	2.62 ± 0.052
FVMKTRRRKGISTGGFM [SNU114]	3.44 ± 0.15	–	–	3.18 ± 0.11
PYTGWVDSKTKEPVDDK [FAS2]	3.05 ± 0.062	3.17 ± 0.069	3.05 ± 0.045	3.17 ± 0.053
EGKYIVDVAKDINVKDL [RPT6]	3.44 ± 0.12	3.21 ± 0.11	2.67 ± 0.14	3.24 ± 0.093
